From patent publication US20140087995A1 (published 2014)
Numbered stars: 1 amine (or outer) side, 2 acyl side, 3 side chain; on linkers, the order of the positions; unused ones are H or OH. Bridge positions count the residues as written; N and C are the ends. Side chains are listed from the residue outwards. Ends that are not written are not given here. * marks the point of attachment. C20 diacid = O=C(O)CCCCCCCCCCCCCCCCCCC(=O)*; γGlu = O=C(O)[C@H](CCC(=O)[*:2])N[*:1]; AEEA = NCCOCCOCC(=O)O

Legend:
[1] = target: T1, human calcitonin receptor (human, UniProt P30988 25-474); experiment: IC50 on human calcitonin receptor divided by IC50 on human amylin receptor (SPA competition)
T1 construct: whole, on cells; membranes of stably transfected BHK cells (Assay VII); also called hCTR; hCT
T1 sequence (looked up): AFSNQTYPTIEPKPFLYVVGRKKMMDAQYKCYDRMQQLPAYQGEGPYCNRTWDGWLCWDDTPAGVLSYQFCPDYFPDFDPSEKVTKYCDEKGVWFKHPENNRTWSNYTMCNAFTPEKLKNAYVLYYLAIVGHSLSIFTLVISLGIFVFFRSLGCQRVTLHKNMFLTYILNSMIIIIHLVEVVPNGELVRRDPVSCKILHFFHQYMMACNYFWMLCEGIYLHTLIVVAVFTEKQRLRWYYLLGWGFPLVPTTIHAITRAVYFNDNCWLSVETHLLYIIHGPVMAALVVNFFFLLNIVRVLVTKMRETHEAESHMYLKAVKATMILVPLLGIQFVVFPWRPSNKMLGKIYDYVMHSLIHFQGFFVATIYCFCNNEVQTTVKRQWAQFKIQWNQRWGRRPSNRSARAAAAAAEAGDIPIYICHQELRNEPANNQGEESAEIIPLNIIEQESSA
In short: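 Competition binding by SPA uses membrane preparations (35 ng/μL final) in pH 7.4 Hepes buffer with 1 mM CaCl2 and 5 mM MgCl₂. Incubation lasts 120 min at 25° C, and IC₅₀ comes from one-site fitting.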

rat calcitonin receptor [2] = target: T2, rat calcitonin receptor (rat, UniProt P32214 25-516); experiment: SPA competition with 125I-calcitonin, membranes of BHK cells with rat calcitonin receptor (Assay VIII)
T2 construct: whole, on cells; membranes of transiently transfected BHK tk'ts 13 cells (Assay VIII); also called rCTR; rat calcitonin (a) receptor
T2 sequence (looked up): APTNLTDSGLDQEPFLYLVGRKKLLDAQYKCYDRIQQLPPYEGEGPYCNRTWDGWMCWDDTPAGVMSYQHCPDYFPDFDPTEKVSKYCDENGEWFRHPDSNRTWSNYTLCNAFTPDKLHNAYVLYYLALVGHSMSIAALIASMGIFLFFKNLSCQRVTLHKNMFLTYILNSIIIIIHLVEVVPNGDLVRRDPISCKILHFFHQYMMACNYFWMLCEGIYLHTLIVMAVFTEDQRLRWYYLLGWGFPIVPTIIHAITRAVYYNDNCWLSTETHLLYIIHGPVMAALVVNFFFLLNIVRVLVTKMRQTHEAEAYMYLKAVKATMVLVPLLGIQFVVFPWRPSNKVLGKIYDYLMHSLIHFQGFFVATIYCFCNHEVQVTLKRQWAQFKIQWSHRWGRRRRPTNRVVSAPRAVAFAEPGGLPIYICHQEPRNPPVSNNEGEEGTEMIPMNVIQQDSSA

[3] = target: T3, rat amylin receptor (rat calcitonin receptor + rat RAMP 3) (rat, UniProt P32214 25-516; Q9JJ73 23-147); experiment: SPA competition with 125I-rat amylin, membranes of BHK cells with rat calcitonin receptor + rat RAMP3 (Assay VI)
T3 construct: whole, on cells; membranes of transiently transfected BHK tk'ts 13 cells (Assay VI); also called rAmylin-R; rat amylin 3(a) receptor
T3 sequence (looked up) 1: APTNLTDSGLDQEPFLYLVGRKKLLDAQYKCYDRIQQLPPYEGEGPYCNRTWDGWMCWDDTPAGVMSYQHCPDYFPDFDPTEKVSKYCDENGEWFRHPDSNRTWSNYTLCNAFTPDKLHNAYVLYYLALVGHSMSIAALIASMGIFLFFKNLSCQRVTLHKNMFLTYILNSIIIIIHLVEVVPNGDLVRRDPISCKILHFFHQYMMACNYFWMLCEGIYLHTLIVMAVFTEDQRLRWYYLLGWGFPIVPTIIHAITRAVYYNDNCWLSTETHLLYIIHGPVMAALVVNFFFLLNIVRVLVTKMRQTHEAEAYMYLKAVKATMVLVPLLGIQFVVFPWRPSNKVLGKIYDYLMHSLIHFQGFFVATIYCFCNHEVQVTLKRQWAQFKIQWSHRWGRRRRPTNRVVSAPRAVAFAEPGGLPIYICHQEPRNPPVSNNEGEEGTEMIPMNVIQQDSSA
T3 sequence (looked up) 2: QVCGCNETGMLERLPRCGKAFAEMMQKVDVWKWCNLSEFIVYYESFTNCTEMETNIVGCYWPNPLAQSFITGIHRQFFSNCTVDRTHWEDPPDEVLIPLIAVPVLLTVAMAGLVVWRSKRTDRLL

rat calcitonin receptor [4] = target: T2, rat calcitonin receptor; experiment: IC50 on rat calcitonin receptor divided by IC50 on rat amylin receptor (SPA competition)
rat calcitonin receptor [5] = target: T4, rat calcitonin receptor (rat, UniProt P32214 25-516); experiment: SPA competition vs 125I-calcitonin, membranes with rat CTR (Assay VIII)
T4 construct: whole, on cells; Cell membranes of transiently transfected BHK tk'ts 13 cells (Assay VIII); also called rCTR; rCT
T4 sequence (looked up): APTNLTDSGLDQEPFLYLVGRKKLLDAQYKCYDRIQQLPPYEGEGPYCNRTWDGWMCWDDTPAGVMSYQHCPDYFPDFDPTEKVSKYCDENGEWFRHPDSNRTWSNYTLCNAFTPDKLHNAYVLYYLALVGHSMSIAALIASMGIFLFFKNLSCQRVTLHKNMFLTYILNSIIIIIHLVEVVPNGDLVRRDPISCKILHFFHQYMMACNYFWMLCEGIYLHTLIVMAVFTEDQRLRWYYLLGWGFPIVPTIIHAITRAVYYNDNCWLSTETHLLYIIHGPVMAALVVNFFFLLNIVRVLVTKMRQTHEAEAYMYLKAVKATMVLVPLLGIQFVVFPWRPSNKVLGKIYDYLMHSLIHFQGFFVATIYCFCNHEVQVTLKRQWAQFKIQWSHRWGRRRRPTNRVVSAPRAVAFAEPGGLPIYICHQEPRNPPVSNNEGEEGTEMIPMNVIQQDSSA

[6] = target: T5, rat amylin receptor (rat calcitonin receptor + rat RAMP 3) (rat, UniProt P32214 25-516; Q9JJ73 23-147); experiment: SPA competition vs 125I-rat amylin, membranes with rat CTR + rat RAMP3 (Assay VI)
T5 construct: whole, on cells; Cell membranes of transiently transfected BHK tk'ts 13 cells (Assay VI); also called rAmylin-R; rat amylin 3(a) receptor
T5 sequence (looked up) 1: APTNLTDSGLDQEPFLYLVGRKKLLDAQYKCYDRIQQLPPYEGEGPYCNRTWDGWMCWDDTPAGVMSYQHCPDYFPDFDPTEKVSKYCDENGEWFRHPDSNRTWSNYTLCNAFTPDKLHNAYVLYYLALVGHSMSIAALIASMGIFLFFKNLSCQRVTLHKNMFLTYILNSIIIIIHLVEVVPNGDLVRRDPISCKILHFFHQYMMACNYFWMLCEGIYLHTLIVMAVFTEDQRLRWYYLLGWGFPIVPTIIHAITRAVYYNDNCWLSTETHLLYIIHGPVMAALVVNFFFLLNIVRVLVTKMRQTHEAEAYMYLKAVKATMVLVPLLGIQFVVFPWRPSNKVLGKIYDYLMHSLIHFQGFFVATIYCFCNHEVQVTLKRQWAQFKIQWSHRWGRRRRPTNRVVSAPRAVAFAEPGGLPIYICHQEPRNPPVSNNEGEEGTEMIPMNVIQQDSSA
T5 sequence (looked up) 2: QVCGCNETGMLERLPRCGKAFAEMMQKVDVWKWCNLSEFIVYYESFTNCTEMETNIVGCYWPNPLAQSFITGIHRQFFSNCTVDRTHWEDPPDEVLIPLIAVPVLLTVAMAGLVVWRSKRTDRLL

B1: N^ε1-[(4S)-4-carboxy-4-(19-carboxynonadecanoylamino)butanoyl]-[Arg17,Pro21,Pro27]-h-amylin (peptide)
peptide: K([γGlu-C20 diacid])CNTATCATQRLANFLRHSSPNFGAIPSSTNVGSNTY-NH2
modifications: disulfide 2-7 (inferred)
notes: analogue of human amylin; also called compound 48
Ratio hCT/hAmylin binding [1]: 69.7
IC50 (rat calcitonin receptor [2]): 112 nM
IC50 [3]: 0.558 nM
Ratio rCT/rAmylin binding (rat calcitonin receptor [4]): 201

B2: N^ε1-[2-[2-[2-[[(4S)-4-carboxy-4-(19-carboxynonadecanoylamino)butanoyl]amino]ethoxy]ethoxy]acetyl]-[Arg17,Pro21,Pro27,Arg35]-h-amylin (peptide)
peptide: K([AEEA-γGlu-C20 diacid])CNTATCATQRLANFLRHSSPNFGAIPSSTNVGSRTY-NH2
modifications: disulfide 2-7; N-terminus assumed
SMILES: CC[C@H](C)[C@H](NC(=O)[C@H](C)NC(=O)CNC(=O)[C@H](Cc1ccccc1)NC(=O)[C@H](CC(N)=O)NC(=O)[C@@H]1CCCN1C(=O)[C@H](CO)NC(=O)[C@H](CO)NC(=O)[C@H](Cc1c[nH]cn1)NC(=O)[C@H](CCCNC(=N)N)NC(=O)[C@H](CC(C)C)NC(=O)[C@H](Cc1ccccc1)NC(=O)[C@H](CC(N)=O)NC(=O)[C@H](C)NC(=O)[C@H](CC(C)C)NC(=O)[C@H](CCCNC(=N)N)NC(=O)[C@H](CCC(N)=O)NC(=O)[C@@H](NC(=O)[C@H](C)NC(=O)[C@@H]1CSSC[C@H](NC(=O)[C@@H](N)CCCCNC(=O)COCCOCCNC(=O)CC[C@H](NC(=O)CCCCCCCCCCCCCCCCCCC(=O)O)C(=O)O)C(=O)N[C@@H](CC(N)=O)C(=O)N[C@@H]([C@@H](C)O)C(=O)N[C@@H](C)C(=O)N[C@@H]([C@@H](C)O)C(=O)N1)[C@@H](C)O)C(=O)N1CCC[C@H]1C(=O)N[C@@H](CO)C(=O)N[C@@H](CO)C(=O)N[C@H](C(=O)N[C@@H](CC(N)=O)C(=O)N[C@H](C(=O)NCC(=O)N[C@@H](CO)C(=O)N[C@@H](CCCNC(=N)N)C(=O)N[C@H](C(=O)N[C@@H](Cc1ccc(O)cc1)C(N)=O)[C@@H](C)O)C(C)C)[C@@H](C)O
notes: Acylated analogue of human amylin; also called compound 38
IC50 (rat calcitonin receptor [5]): 38 nM
IC50 [6]: 0.383 nM

B3: N^ε1-[(4S)-4-carboxy-4-[[(4S)-4-carboxy-4-(19-carboxynonadecanoylamino)butanoyl]amino]butanoyl]-[Asp14,Arg17,Pro21,Pro27,Arg35]-h-amylin (peptide)
peptide: K([γGlu-γGlu-C20 diacid])CNTATCATQRLADFLRHSSPNFGAIPSSTNVGSRTY-NH2
modifications: disulfide 2-7; N-terminus assumed
SMILES: CC[C@H](C)[C@H](NC(=O)[C@H](C)NC(=O)CNC(=O)[C@H](Cc1ccccc1)NC(=O)[C@H](CC(N)=O)NC(=O)[C@@H]1CCCN1C(=O)[C@H](CO)NC(=O)[C@H](CO)NC(=O)[C@H](Cc1c[nH]cn1)NC(=O)[C@H](CCCNC(=N)N)NC(=O)[C@H](CC(C)C)NC(=O)[C@H](Cc1ccccc1)NC(=O)[C@H](CC(=O)O)NC(=O)[C@H](C)NC(=O)[C@H](CC(C)C)NC(=O)[C@H](CCCNC(=N)N)NC(=O)[C@H](CCC(N)=O)NC(=O)[C@@H](NC(=O)[C@H](C)NC(=O)[C@@H]1CSSC[C@H](NC(=O)[C@@H](N)CCCCNC(=O)CC[C@H](NC(=O)CC[C@H](NC(=O)CCCCCCCCCCCCCCCCCCC(=O)O)C(=O)O)C(=O)O)C(=O)N[C@@H](CC(N)=O)C(=O)N[C@@H]([C@@H](C)O)C(=O)N[C@@H](C)C(=O)N[C@@H]([C@@H](C)O)C(=O)N1)[C@@H](C)O)C(=O)N1CCC[C@H]1C(=O)N[C@@H](CO)C(=O)N[C@@H](CO)C(=O)N[C@H](C(=O)N[C@@H](CC(N)=O)C(=O)N[C@H](C(=O)NCC(=O)N[C@@H](CO)C(=O)N[C@@H](CCCNC(=N)N)C(=O)N[C@H](C(=O)N[C@@H](Cc1ccc(O)cc1)C(N)=O)[C@@H](C)O)C(C)C)[C@@H](C)O
notes: Acylated analogue of human amylin; also called compound 52
IC50 (rat calcitonin receptor [5]): 159 nM
IC50 [6]: 0.335 nM
